Data on three molecules can be found in US20040254354A1 (INHIBITEX, published 2004).

First the molecules themselves.
T1: human fibrinogen (human, UniProt P02671 20-629; P02675 31-491; P02679 27-437)
T1 construct: Bought (Chromogenix for ELISA and blots; Calbiochem, plasminogen free, for clumping assays); The plate adherence paragraphs say only 'fibrinogen'; also called solid phase fibrinogen; immobilized fibrinogen
T1 sequence 1: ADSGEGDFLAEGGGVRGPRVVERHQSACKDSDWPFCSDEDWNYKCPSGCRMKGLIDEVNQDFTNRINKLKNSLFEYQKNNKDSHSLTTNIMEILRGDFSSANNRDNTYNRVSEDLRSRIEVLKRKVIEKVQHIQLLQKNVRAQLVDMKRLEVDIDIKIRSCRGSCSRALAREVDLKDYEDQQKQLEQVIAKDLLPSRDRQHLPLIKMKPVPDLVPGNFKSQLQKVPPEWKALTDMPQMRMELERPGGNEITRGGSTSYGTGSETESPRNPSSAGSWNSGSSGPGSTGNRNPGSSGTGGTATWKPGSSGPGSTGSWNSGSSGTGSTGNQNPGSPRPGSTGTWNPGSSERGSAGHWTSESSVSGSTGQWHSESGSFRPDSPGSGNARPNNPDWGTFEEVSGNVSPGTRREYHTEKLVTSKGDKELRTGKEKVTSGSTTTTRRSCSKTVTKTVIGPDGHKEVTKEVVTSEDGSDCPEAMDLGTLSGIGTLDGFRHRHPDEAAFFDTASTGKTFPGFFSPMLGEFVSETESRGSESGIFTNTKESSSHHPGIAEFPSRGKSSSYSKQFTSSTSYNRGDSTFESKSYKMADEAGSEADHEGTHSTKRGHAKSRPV
T1 sequence 2: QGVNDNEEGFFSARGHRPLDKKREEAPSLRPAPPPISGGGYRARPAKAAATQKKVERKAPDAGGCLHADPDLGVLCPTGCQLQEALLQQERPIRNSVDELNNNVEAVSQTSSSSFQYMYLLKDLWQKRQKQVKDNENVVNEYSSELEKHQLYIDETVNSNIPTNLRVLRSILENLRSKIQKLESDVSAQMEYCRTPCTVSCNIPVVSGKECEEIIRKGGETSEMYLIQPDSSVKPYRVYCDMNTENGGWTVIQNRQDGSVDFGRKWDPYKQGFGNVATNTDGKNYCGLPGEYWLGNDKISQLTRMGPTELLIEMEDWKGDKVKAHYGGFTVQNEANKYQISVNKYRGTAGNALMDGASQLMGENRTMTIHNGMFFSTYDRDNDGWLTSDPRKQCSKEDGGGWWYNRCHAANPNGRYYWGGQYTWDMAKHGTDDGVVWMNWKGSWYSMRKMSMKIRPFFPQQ
T1 sequence 3: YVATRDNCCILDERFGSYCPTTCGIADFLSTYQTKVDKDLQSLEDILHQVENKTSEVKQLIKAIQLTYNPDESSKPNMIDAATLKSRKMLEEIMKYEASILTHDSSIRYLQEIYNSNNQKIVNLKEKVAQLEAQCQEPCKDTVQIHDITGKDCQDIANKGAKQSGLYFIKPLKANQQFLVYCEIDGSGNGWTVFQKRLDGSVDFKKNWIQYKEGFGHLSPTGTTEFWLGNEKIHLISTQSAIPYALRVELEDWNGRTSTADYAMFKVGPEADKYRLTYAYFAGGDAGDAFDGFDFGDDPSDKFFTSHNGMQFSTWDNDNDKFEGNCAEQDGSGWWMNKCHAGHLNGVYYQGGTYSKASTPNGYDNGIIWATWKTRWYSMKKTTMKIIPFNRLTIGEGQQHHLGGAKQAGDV

B1: γ chain of human fibrinogen (ligand)
chain: T1 sequence 3
notes: also called gamma-chain of fibrinogen; y chain of fibrinogen
B2: biotinylated recombinant region A from ClfA (other)
chain: SENSVTQSDSASNESKSNDSSSVSAAPKTDDTNVSDTKTSSNTNNGETSVAQNPAQQETTQSSSTNATTEETPVTGEATTTTTNQANTPATTQSSNTNAEELVNQTSNETTFNDTNTVSSVNSPQNSTNAENVSTTQDTSTEATPSNNESAPQSTDASNKDVVNQAVNTSAPRMRAFSLAAVAADAPAAGTDITNQLTNVTVGIDSGTTVYPHQAGYVKLNYGFSVPNSAVKGDTFKITVPKELNLNGVTSTAKVPPIMAGDQVLANGVIDSDGNVIYTFTDYVNTKDDVKATLTMPAYIDPENVKKTGNVTLATGIGSTTANKTVLVDYEKYGKFYNLSIKGTIDQIDKTNNTYRQTIYVNPSGDNVIAPVLTGNLKPNTDSNALIDQQNTSIKVYKVDNAADLSESYFVNPENFEDVTNSVNITFPNPNQYKVEFNTPDDQITTPYIVVVNGHIDPNSKGDLALRSTLYGYNSNIIWRSMSWDNEVAFNNGSGSGDGIDKPVVPEQPDEPGEIEPIPE
modifications: biotinylated (sites not given)
notes: domain: region A; also called ClfA region A; biotinylated ClfA

One assay concerns the target human fibrinogen (human) (UniProt P02671). The assay can be described thus: cell-based or functional assay.
Assay [1] concerns the target B2. Description: Western affinity blot of human fibrinogen (FIG. 22).
A further assay has as its target T2, bovine serum albumin (bovine, UniProt P02769 25-607).
T2 construct: also called BSA
Description: direct ELISA, biotinylated region A on BSA-coated plates. (In general: In an ELISA, binding on a coated surface is turned into a signal by an enzyme label.)

For a further assay, the target named is T1, human fibrinogen. The assay can be described thus: direct ELISA, biotinylated region A on fibrinogen-coated plates.

T2 sequence (P02769 25-607 limits assumed): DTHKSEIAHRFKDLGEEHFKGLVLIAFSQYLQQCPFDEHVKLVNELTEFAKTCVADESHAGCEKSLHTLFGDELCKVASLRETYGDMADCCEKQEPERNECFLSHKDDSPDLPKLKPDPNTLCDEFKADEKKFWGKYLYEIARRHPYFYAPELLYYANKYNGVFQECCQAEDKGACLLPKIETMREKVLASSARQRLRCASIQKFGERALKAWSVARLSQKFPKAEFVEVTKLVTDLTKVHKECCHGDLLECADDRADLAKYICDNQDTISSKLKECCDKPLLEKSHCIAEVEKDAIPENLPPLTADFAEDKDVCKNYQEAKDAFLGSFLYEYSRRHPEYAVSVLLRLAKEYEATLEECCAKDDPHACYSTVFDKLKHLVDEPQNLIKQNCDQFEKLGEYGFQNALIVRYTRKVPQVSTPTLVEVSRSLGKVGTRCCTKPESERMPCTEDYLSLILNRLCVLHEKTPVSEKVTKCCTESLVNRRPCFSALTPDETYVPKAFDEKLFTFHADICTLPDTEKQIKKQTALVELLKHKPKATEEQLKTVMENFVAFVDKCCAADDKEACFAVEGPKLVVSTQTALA

With “ClfA (native, on S. aureus Newman cells) (from UniProt Q53653 40-899)”, in the assay with human fibrinogen (human), the Clumping titer, µg/ml fibrinogen; clfB mutant, exponential phase (µg/ml fibrinogen) is 1.95; the Clumping titer, µg/ml fibrinogen; clfB mutant, stationary phase (µg/ml fibrinogen) amounted to 0.98; the Clumping titer, µg/ml fibrinogen; wild-type, stationary phase (µg/ml fibrinogen) was determined as 0.98.

As to B1, in assay [1], the binding result is given as “binds”.

As for B2, in the assay with bovine serum albumin, the binding result is “no binding”. Further, the “binding at the highest concentration, relative to ClfB region A” value with human fibrinogen is about 50 % greater than ClfB.
